B1: Dis1 C2–eGFP (amino acids 690–882) (domain or fragment, Schizosaccharomyces pombe, UniProt Q09933 690-882, looked up)
chain: EKVELDLLREEKAIRQVQEAEDALERERLFREINDLQIQNAEMKEQVYEKESTISQKEVEITSLRNEKDRLSTRLQQVLLELEKQHETNEEAMDIDLKVPESGAIGRVTTRATATTAMDESGNAGMVSSGIHSVSTKPSSYGTRRSLAGSMLQKPTQFSRPSFMFSPEARDNWRESHDLSSHLWEQIQRMKKA
notes: also called Dis1-C2–eGFP (WT); source: bacterially expressed, purified (as the other Dis1–eGFP constructs)
B3: Dis1–eGFP (full-length Dis1 with eGFP fused to its C-terminus) (natural protein, Schizosaccharomyces pombe, UniProt Q09933 1-882, looked up)
chain: MELDDFNSRILSQIFDKSWKVRFEAYESLLHALNRALDDSDVCFQPWIHDPALWKQGLCDSNVPTQEHAVKSLRCFLDKSRQKGVNSAKSFVVAPLLEKCLPSPRQSIRDASHQALLILAKSDALDYVLEGLFSAARVKHPKQAVASIKELNSLLENFGIPALSPIPFYKLIPTLFAQSDKNIRQEASNLSITLYAWVGNAFKTHVFPQLKQIQVSDLEASFQNVTSRTTTGGHISNSLNTQEVVLPSFSSNAKPKPHLSSKSSSQGNTLQRSTSSFSTPNRKVSQPSDFSASPSRSIVSPAKNIVGSTPVDVLSKLTPEFHTALSSPKWKDRKEALESMVPVCSNPVYQEGDYSELLRVIAKSLKDANVVVVGVAALLLTHIAKALRKGFLPYTGIVLPSLFDRFKERKSSLVHSLLDAANAIFESCGLNDIMDETLEFLKHKNPQVKTETLRWLNRCLQLTDVCPPRASLETLCSLCVTLINDTFEPVRMATTNVLATLVQIFSQPVLSKYIVGLDPKKLPKILELSKDITVNAHPNQPSRPRLPRVASPLKTSPVKLAVTPQAPSPLPSSNPSQASLTEESLSTRSSPTKPSTTSLRSQSLVNRFASSTLKAPSSSSKGVSNAASSKQSFPSSPSISKKLETSRLSTKKLPGSTMKAASALKEYPQQQSMKSGGEKQDNLVTITMSEKVELDLLREEKAIRQVQEAEDALERERLFREINDLQIQNAEMKEQVYEKESTISQKEVEITSLRNEKDRLSTRLQQVLLELEKQHETNEEAMDIDLKVPESGAIGRVTTRATATTAMDESGNAGMVSSGIHSVSTKPSSYGTRRSLAGSMLQKPTQFSRPSFMFSPEARDNWRESHDLSSHLWEQIQRMKKA
B4: GST–Mal3 (GST-tagged Mal3) (natural protein, Schizosaccharomyces pombe, UniProt Q10113 1-308, looked up)
chain: MSESRQELLAWINQVTSLGLTRIEDCGKGYAMIQIFDSIYQDIPLKKVNFECNNEYQYINNWKVLQQVFLKKGIDKVVDPERLSRCKMQDNLEFVQWAKRFWDQYYPGGDYDALARRGNRGPANTRVMNSSAGATGPSRRRQVSSGSSTPSMTKSSANNNNVSSTANTAAVLRAKQAQQQITSLETQLYEVNETMFGLERERDFYFNKLREIEILVQTHLTTSPMSMENMLERIQAILYSTEDGFELPPDQPADLTTALTDHDTNNVAEEAQMTDLKDSETQRVPSAPDFVHARLQSLEVDDDENITF
notes: Mal3, the sole EB1 homologue of fission yeast; also called Mal3 FL
B5: Mal3 (recombinant full-length, without fluorescent protein) (natural protein, Schizosaccharomyces pombe, UniProt Q10113 1-308, looked up)
chain: MSESRQELLAWINQVTSLGLTRIEDCGKGYAMIQIFDSIYQDIPLKKVNFECNNEYQYINNWKVLQQVFLKKGIDKVVDPERLSRCKMQDNLEFVQWAKRFWDQYYPGGDYDALARRGNRGPANTRVMNSSAGATGPSRRRQVSSGSSTPSMTKSSANNNNVSSTANTAAVLRAKQAQQQITSLETQLYEVNETMFGLERERDFYFNKLREIEILVQTHLTTSPMSMENMLERIQAILYSTEDGFELPPDQPADLTTALTDHDTNNVAEEAQMTDLKDSETQRVPSAPDFVHARLQSLEVDDDENITF
notes: Mal3, the sole EB1 homologue of fission yeast; also called unlabelled Mal3; source: bacterially expressed, purified (as in Maurer et al., 2011)

In test [1] the target is B4. Nature of the test: pull-down; peptide competition: 1 µM GST–Mal3 on glutathione beads pre-incubated 30 min with Dis1 peptide (0, 0.5, 2.5, 5.0, 50, 100 µM), then 0.5 µM Dis1 C2–eGFP for 1 h. To be noted: both partners purified.
Test [2] concerns the target B5. Nature of the test: TIRF microscopy on dynamic microtubules in vitro; Cy5-labelled MTs grown from immobilised GMPCPP-stabilised seeds; BRB80 with 85 mM KCl, 1 mM GTP, 10 mM β-mercaptoethanol, 0.1% Brij-35, 0.1% methylcellulose; 30±1°C; 10-20 nM Dis1–eGFP proteins with or without 20 nM-1 µM Mal3. To be noted: both partners purified.
For test [3], the target named is T1, Dis1 C1–eGFP (amino acids 520–882) (Schizosaccharomyces pombe, UniProt Q09933 520-882).
T1 construct: source: bacterially expressed, purified (as the other Dis1–eGFP constructs)
T1 sequence (looked up): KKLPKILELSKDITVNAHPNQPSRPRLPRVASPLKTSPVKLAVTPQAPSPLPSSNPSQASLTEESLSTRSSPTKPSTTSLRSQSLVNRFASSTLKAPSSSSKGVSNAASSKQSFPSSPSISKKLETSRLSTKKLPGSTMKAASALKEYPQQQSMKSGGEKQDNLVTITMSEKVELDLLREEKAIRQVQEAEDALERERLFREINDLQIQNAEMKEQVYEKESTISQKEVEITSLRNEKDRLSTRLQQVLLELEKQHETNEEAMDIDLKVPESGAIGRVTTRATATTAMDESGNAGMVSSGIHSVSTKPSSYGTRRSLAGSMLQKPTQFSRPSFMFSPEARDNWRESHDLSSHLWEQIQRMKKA
The test is described as follows: pull-down; GST pulldown: 1 µM GST, GST–Mal3 or truncated GST–Mal3 on glutathione–Sepharose beads with 0.5 µM Dis1–eGFP proteins; BRB80 with 85 mM KCl, 0.01% Brij-35, 1 mM DTT; 1 h at 4°C. To be noted: both partners purified.

Test [4] has as its target B5. Nature of the test: cell-based or functional assay.
Test [5] addresses B3. Nature of the test: pull-down; GST pulldown: 1 µM GST, GST–Mal3 or truncated GST–Mal3 on glutathione–Sepharose beads with 0.5 µM Dis1–eGFP proteins; BRB80 with 85 mM KCl, 0.01% Brij-35, 1 mM DTT; 1 h at 4°C. To be noted: both partners purified.
Test [6] concerns the target B3. Nature of the test: TIRF microscopy on dynamic microtubules in vitro; Cy5-labelled MTs grown from immobilised GMPCPP-stabilised seeds; BRB80 with 85 mM KCl, 1 mM GTP, 10 mM β-mercaptoethanol, 0.1% Brij-35, 0.1% methylcellulose; 30±1°C; 10-20 nM Dis1–eGFP proteins with or without 20 nM-1 µM Mal3. The conditions noted are these: both partners purified.
Test [7] has as its target T2, Dis1–HA (full-length Dis1 with a hemagglutinin tag at its C-terminus) (Schizosaccharomyces pombe, UniProt Q09933 1-882).
T2 construct: Dis1, fission yeast (S. pombe) member of the XMAP215/TOG family; cDNA optimised for E. coli codons; also called recombinant Dis1 with an HA tag; source: bacterially expressed, purified (IgG Sepharose, Precision protease); not shown: HA, C-terminal, kept
T2 sequence (looked up): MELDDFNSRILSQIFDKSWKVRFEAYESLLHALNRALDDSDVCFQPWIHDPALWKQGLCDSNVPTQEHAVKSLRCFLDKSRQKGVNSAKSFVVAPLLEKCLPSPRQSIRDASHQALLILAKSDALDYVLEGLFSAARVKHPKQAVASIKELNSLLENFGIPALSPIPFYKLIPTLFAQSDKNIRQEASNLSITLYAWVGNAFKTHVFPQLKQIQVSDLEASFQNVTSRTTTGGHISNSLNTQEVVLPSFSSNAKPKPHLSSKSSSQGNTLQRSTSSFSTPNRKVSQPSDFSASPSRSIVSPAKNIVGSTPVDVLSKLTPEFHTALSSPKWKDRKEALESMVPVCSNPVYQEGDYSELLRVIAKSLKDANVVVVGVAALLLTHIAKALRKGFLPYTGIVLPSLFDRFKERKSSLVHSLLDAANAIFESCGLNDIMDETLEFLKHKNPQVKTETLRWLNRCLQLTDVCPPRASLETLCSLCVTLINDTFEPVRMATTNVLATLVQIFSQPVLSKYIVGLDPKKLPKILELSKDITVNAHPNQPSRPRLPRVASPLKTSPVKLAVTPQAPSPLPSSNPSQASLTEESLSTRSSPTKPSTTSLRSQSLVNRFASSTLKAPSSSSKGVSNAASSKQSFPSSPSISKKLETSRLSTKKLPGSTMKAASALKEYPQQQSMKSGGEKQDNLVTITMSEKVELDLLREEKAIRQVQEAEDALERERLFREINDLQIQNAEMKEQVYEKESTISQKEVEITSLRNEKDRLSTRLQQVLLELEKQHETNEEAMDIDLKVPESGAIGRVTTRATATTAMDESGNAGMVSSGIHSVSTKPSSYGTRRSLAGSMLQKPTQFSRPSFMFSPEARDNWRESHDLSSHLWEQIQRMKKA
The test is described as follows: SEC; analytical gel filtration on Superose 6 10/300; 25 mM K-HEPES pH 7.5, 200 mM KCl, 1 mM EGTA, 1 mM MgCl2; 5 µM Dis1–eGFP with 10 µM tubulin, or 5 µM Dis1–HA with 20 µM Mal3. To be noted: both partners purified.

Test [8] has as its target B1. The test is described as follows: pull-down; Mal3 (amino acids 174–247) mixed with wild-type or LAPA Dis1-C2–eGFP and pulled down by GFP trap beads. The conditions noted are these: both partners purified.

In the case of B1, the binding result in test [1] and in test [2] was “binds” each time.

B2: GST–Mal3 C1 (amino acids 144–308) (domain or fragment, Schizosaccharomyces pombe, UniProt Q10113 144-308, looked up)
chain: SSGSSTPSMTKSSANNNNVSSTANTAAVLRAKQAQQQITSLETQLYEVNETMFGLERERDFYFNKLREIEILVQTHLTTSPMSMENMLERIQAILYSTEDGFELPPDQPADLTTALTDHDTNNVAEEAQMTDLKDSETQRVPSAPDFVHARLQSLEVDDDENITF
notes: also called C-terminal half
Consider B2, for which, in test [3], the binding result is listed as “binds”.
Consider B3, for which the “MT catastrophe frequency with Mal3 and Dis1 together, fold over tubulin alone (Mal3 alone ∼1.9-fold, Dis1 alone no effect)” value in test [4] was roughly 3.8 fold.
B4: the binding result in test [5] is “binds”.
With B5, the binding result in test [6] and in test [7] was “binds” throughout.

B6: Mal3 C4 (amino acids 174–247; C-terminal part of the coiled-coil and the EBH domain) (domain or fragment, Schizosaccharomyces pombe, UniProt Q10113 174-247, looked up)
chain: AKQAQQQITSLETQLYEVNETMFGLERERDFYFNKLREIEILVQTHLTTSPMSMENMLERIQAILYSTEDGFEL
notes: Homodimer in both crystal structures; also called Mal3 EBH domain; source: purified (His-tag resin, TEV protease, gel filtration)
Take B6: in test [8], the binding result is reported as “binds”.

B7: Dis1 peptide (amino acids 833–852) (peptide, UniProt Q09933 833-852, looked up)
peptide: RRSLAGSMLQKPTQFSRPSF
notes: source: spotted on the peptide array membrane
Consider B7, for which the binding result in test [1] is reported as “binds”.

Source of the values: PMC5201023, “An unconventional interaction between Dis1/TOG and Mal3/EB1 in fission yeast promotes the fidelity of chromosome segregation” (Journal of Cell Science, 2016).
